From US20210032294A1, “MODIFIED PlySs2 LYSINS AND USES THEREOF” (CONTRAFECT CORPORATION, priority 2018, published 2021)
Changes are numbered by the printed parent chain. Names may count otherwise. “And” between values parts separate entries of the source, which are not always exact repeats. Equal entries are not always repeated.

B1: CF-301: WT GMP grade PlySs2 lysin, SEQ ID NO: 1 (protein, listed as Streptococcus suis)
chain: MTTVNEALNNVRAQVGSGVSVGNGECYALASWYERMISPDATVGLGAGVGWVSGAIGDTISAKNIGSSYNWQANGWTVSTSGPFKAGQIVTLGATPGNPYGHVVIVEAVDGDRLTILEQNYGGKRYPVRNYYSAASYRQQVVHYITPPGTVAQSAPNLAGSRSYRETGTMTVTVDALNVRRAPNTSGEIVAVYKRGESFDYDTVIIDVNGYVWVSYIGGSGKRNYVATGATKDGKRFGNAWGTFK
B2: pp61: Modified PlySs2 lysin, SEQ ID NO: 4: L92W, V104S, V128T, Y137S, S198H, I206E; +246K (protein)
chain: B1 chain with L92W, V104S, V128T, Y137S, S198H, I206E
B3: pp65: Modified PlySs2 lysin, SEQ ID NO: 5: L92W, V104S, V128T, Y137S, S198Q, V204A, V212A; +246K (protein)
chain: B1 chain with L92W, V104S, V128T, Y137S, S198Q, V204A, V212A
B4: pp55: Modified PlySs2 lysin, SEQ ID NO: 3: L92W, V104S, V128T, Y137S; extra C-terminal lysine (+246K) (protein)
chain: B1 chain with L92W, V104S, V128T, Y137S

Assays:
[1] = tested on: 1-day old biofilms formed by MSSA isolates; assay: Minimum Biofilm Eradication Concentration (MBEC), MSSA biofilms; assay type: cell-based, Staphylococcus aureus; settings: 24 hours treatment
Procedure: (§1) In some embodiments, the present modified lysin polypeptides are capable of reducing a biofilm. […] Biofilms are then washed and treated with e.g., a 2-fold dilution series of the lysin in TSBg at e.g., 37° C. for 24 hours. After treatment, wells are washed, air-dried at e.g., 37° C. and stained with e.g., 0.05% crystal violet for 10 minutes. After staining, the biofilms are destained in e.g., 33% acetic acid and the OD600 of e.g., extracted crystal violet is determined. The MBEC of each sample is the minimum lysin concentration required to remove >95% of the biofilm biomass assessed by crystal violet quantitation.
(§2) The anti-biofilm activity of pp296 was determined against 1-day old biofilms formed by 17 MSSA and 20 MRSA isolates in a 96-well broth microdilution format. The Minimum Biofilm Eradication Concentration (MBEC) values for pp296, compared to wild-type PlySs2 (CF-301), were determined by the following standard methodology. Bacteria were suspended in PBS (0.5 McFarland Units), diluted 1:100 in TSBg (66% tryptic soy broth, 0.2% glucose), added as 0.15 mL aliquots to 96-well polystyrene microplates, and incubated for 24 hours at 37° C. Biofilms were then washed and treated with a 2-fold dilution series of CF-301 or pp296 in TSBg at 37° C. for 24 hours. All samples were examined in triplicate. After treatment, wells were washed, air-dried at 37° C., and stained with 0.05% crystal violet for 10 min The loss of biofilm biomass was assessed visually, and crystal violet was quantitated by solubilization in 33% (vol/vol) acetic acid. The optical density of 600 nm (OD600) was determined using a SpectraMax M3 Multimode microplate reader. The MBEC of each sample was the minimum lysin concentration required to remove >95% of the biofilm biomass assessed by crystal violet quantitation.

[2] = tested on: 5 MRSA strains and 5 MSSA strains; assay: Checkerboard synergy assay with daptomycin or vancomycin; assay type: cell-based, Staphylococcus aureus; settings: with vancomycin
Procedure: Synergy studies with antibiotics suitable for treatment of Gram-positive bacteria, for example, daptomycin (DAP) and vancomycin (VAN), were performed using a checkerboard assay. Fractional inhibitory concentration (FIC) index values were determined for modified lysin polypeptide pp296 and antibiotic combinations against 5 methicillin-sensitive Staphylococcus aureus (MSSA) and 5 methicillin resistant Staphylococcus aureus (MRSA) isolates. An FIC index value of ≤0.5 may be interpreted as strong synergy between the two agents, while a value between 0.5 and 1 may still be considered a synergistic effect. Given that pp296 has four amino acid replacements in the catalytic domain, the ability of pp296 to synergize with antibiotics was unexpected. […] Qualitatively similar results may be anticipated upon performing similar assays using other de-immunized active variants, such as pp55, pp61, pp65, pp400, and pp619, in accordance with the present disclosure.
In another experiment, the ability of modified lysin polypeptide pp296 to synergize with daptomycin and vancomycin was assessed using a checkerboard analysis. FIC (fractional inhibitory concentration) index values were determined for pp296 and antibiotic combinations against 5 MSSA and 5 MRSA isolates. A total of 50 μl of Mueller-Hinton broth (BBL) was distributed into each well of microdilution plates. The first antibiotic of the combination was serially diluted along the ordinate, while the second drug was diluted along the abscissa. An inoculum equal to a 0.5 McFarland turbidity standard was prepared from each S. aureus isolate in MHB. Each microtiter well was inoculated with 100 μl of a bacterial inoculum of 5×10^5 CFU/ml, and the plates were incubated at 37° C. for 18 h under aerobic conditions. The resulting checkerboard contained each combination of two antibiotics, with wells that contained the highest concentration of each antibiotic at opposite corners. […] To quantify the interactions between the antibiotics being tested, the FIC index (the combination of antibiotics that produced the greatest change from the individual antibiotic's MIC) value was calculated for each strain and antibiotic combination as follows:
(A/MICA)+(B/MICB)=FICA+FICB=FIC index,
Checkerboards were generated using combinations of pp296 with either daptomycin or vancomycin against 5 MRSA strains (MW2, JMI-5675, JMI-4408, JMI-6181, and JMI-6182) and 5 MSSA strains (ATCC 29213, JMI-40979, JMI-43257, JMI-41293, and JMI-49315). Synergy was defined as inhibitory activity greater than what would be predicted by adding the two components together.

bacterial inoculum = assay: Thermal stability: in vitro lytic assay after 30 min heating; assay type: cell-based; settings: for % Wild-Type Activity at 37° C. / % of CF-301 wild-type, 37° C.: 30 minutes at 37° C.; for % Wild-Type Activity at 37° C.: 128 μg/mL in Tris buffer pH 8.0, CF-301 set at 100; for % of CF-301 wild-type, 37° C.: another experiment; for % of CF-301 wild-type, 40° C.: 30 minutes at 40° C.; for % of CF-301 wild-type, 42° C.: 30 minutes at 42° C.; for % of CF-301 wild-type, 45° C.: 30 minutes at 45° C.; for % of CF-301 wild-type, 48° C.: 30 minutes at 48° C.; for % of CF-301 wild-type, 50° C.: 30 minutes at 50° C.
Procedure: Thermal stability was assessed by incubating the lysin polypeptides at a fixed concentration of 128 μg/mL in Tris buffer pH 8.0 for 30 minutes at various elevated temperatures (within the range of about 30° C. to 60° C.) prior to assessing activity. The samples were then cooled for 2 minutes on ice and activity was then assessed by an in vitro lytic assay by exposing a bacterial inoculum (OD600 ˜0.5-1.2) in Tris buffer to a 2-fold dilution series of each sample (diluted from 128-0.25 μg/mL across the x-axis of a 96 well microtiter plate). The loss of optical density was followed for 15 minute at room temperature, and the specific activity was determined based on the enzyme concentration enabling a 50% loss of optical density at 15 minutes. The enzyme activities of each variant were compared to the wild-type, CF-301 enzyme (GMT-grade PlySs2 protein) to calculate the % of Wild-Type Activity over a range of temperatures.
The thermal stability of wild-type, CF-301 was arbitrarily set at 100. The results for exemplary modified lysin polypeptides are set forth below in Table 5 at a single temperature of 37° C.:
In another experiment, the thermal stability of modified lysin polypeptides was assessed at different temperatures and compared with that of wild-type, CF-301 (set at 100).

[3] = tested on: 5 MRSA strains and 5 MSSA strains; assay: Checkerboard synergy assay with daptomycin or vancomycin; assay type: cell-based, Staphylococcus aureus; settings: MRSA (JMI-41293) strain
[4] = tested on: 1-day old biofilms formed by MRSA isolates; assay: Minimum Biofilm Eradication Concentration (MBEC), MRSA biofilms; assay type: cell-based, Staphylococcus aureus; settings: 24 hours treatment
Procedure: as §1, §2

[5] = Toxicity screening in mice; assay type: in vivo
Procedure: Selected modified lysin polypeptides from Table 3 were subjected to further testing as described in more detail in subsequent Examples. […] The same 30 mg/kg dose of PlySs2 caused a 100% incidence of adventitial findings, which is an indication of potential toxicity.

MRSA isolates = assay: MIC in CAMHB-HSD against MRSA isolates; assay type: cell-based, Staphylococcus aureus; settings: 51 MRSA isolates
Procedure: (§3) In vitro activity of the modified lysin polypeptide pp296 was assessed against a range of 51 MSSA and 51 MRSA isolates in cation-adjusted Mueller Hinton broth supplemented with 25% horse serum and 0.5 mM DTT (CAMHB-HSD) and compared to WT GMP grade PlySs2 (CF-301). CF-301 and pp296 were each diluted into CAMHB-HSD. For each lysin, the dilution series is set up such that, after a two-fold dilution of each well of the plate, the final concentrations contained: 64, 32, 16, 8, 4, 2, 1, 0.5, 0.25, and 0.125 μg/mL. Each lysin was tested in duplicate against each strain. Preparations were incubated overnight. Growth was visualized as a growth button approximately 2 mm in diameter. The highest dilution that yielded ≥80% growth inhibition was called the minimum inhibitory concentration (MIC). The activity of pp296 was very similar, within one 2-fold dilution, to that of CF-301, as shown below in Table 7.

MSSA isolates = assay: MIC in CAMHB-HSD against MSSA isolates; assay type: cell-based, Staphylococcus aureus; settings: 51 MSSA isolates
Procedure: as §3

[6] = tested on: S. aureus isolate CFS-860; assay: Mouse neutropenic thigh infection (MNTI) model; assay type: in vivo, Staphylococcus aureus; settings: neutropenic BALB/cByJ mice, intravenous, dose response, 24 hours
Procedure: The efficacy of four modified lysin polypeptides was compared to wild-type PlySs2 in a dose response (0-60 mg/kg) assay using a mouse neutropenic thigh infection (MNTI) model.
Bacterial inoculum was generated by allowing bacterial cells to grow to exponential phase in MHB until they reached an optical density (OD) of about 0.5 at 600 nm. The bacterial cells were thoroughly washed, resuspended in 0.9% sodium chloride USP, and diluted to an equivalent of 3.9×10^8 colony forming units (CFU)/mL. Cells were further diluted as described below in 0.9% sodium chloride USP and maintained on wet ice.
Neutropenia was induced in female BALB/cByJ mice (5-7 weeks, Jackson Laboratories) by intraperitoneal (ip) administration of 150 mg/kg and 100 mg/kg of cyclophosphamide 4 and 1 days prior to inoculation of bacteria, respectively. Bacterial inoculum (S. aureus isolate CFS-860, 100 μl of 10^7 CFU/ml solution) was injected intramuscularly (IM) into both posterior thighs of each mouse. […] At 2 hours post-inoculation (Early Control) and 24 hours post-treatment initiation, animals were euthanized (CO2 asphyxiation), and the thighs were aseptically removed. Each thigh was weighed, placed into 4 ml sterile saline and homogenized in 7 ml lysing tubes using a Precellys24 high-throughput tissue homogenizer (Bertin Corp, Rockville, Md.). Dilutions of homogenate were plated on tryptic soy blood agar plates (Becton Dickinson) and incubated at 37° C. overnight in a CO2 incubator. Bacterial burden was enumerated and expressed as log 10 CFU/g of thigh weight and compared to control animals harvested at 2 hours post infection (Early Control) and animals treated with vehicle (Late Control).
The data representing mouse thigh bacterial burden are depicted in FIG. 2. The upper dot on the y-axis is vehicle alone, and the lower dot on the y-axis is the Early Control. pp1149 is in fact also a wild-type lysin over-expressed and purified in the laboratory along with the other modified lysin polypeptides and used as an additional positive control.

Row | Molecule | % Wild-Type Activity at 37° C. (bacterial inoculum) | Adventitial findings (lesions) ([5]; 30 mg/kg) | % of CF-301 wild-type, 37° C. (bacterial inoculum) [%] | % of CF-301 wild-type, 40° C. (bacterial inoculum) [%] | % of CF-301 wild-type, 42° C. (bacterial inoculum) [%] | % of CF-301 wild-type, 45° C. (bacterial inoculum) [%] | % of CF-301 wild-type, 48° C. (bacterial inoculum) [%] | % of CF-301 wild-type, 50° C. (bacterial inoculum) [%] | Bactericidal efficacy (thigh bacterial burden) versus wild type [6] | further results
1 | B1 | 100% | all mice | – | – | – | – | – | – | – | MBEC50 [1]: 0.125 µg/mL; MBEC90 [1]: 0.125 µg/mL; MBEC Range [1]: 0.125 to 0.5 µg/mL; FIC index ([2]; MRSA JMI-6182): 0.5; FIC index ([2]; MSSA ATCC 29213): 0.5; FIC index ([2]; MSSA strain JMI-40979): 0.5; FIC index ([2]; against 6 of the 10 strains examined): 0.5; FIC index [3]: 0.5; MBEC50 [4]: 0.125 µg/mL; MBEC90 [4]: 0.125 µg/mL; MBEC Range [4]: 0.125 to 0.25 µg/mL; Kidney findings (renal changes) [5]: did not result in kidney findings; Incidence of adventitial findings ([5]; 30 mg/kg): 100%; MIC50 (MRSA isolates): 0.5 µg/mL; MIC90 (MRSA isolates): 0.5 µg/mL; MIC Range (MRSA isolates): 0.12 to 1 µg/mL; MIC50 (MSSA isolates): 0.5 µg/mL; MIC90 (MSSA isolates): 1 µg/mL; MIC Range (MSSA isolates): 0.5 to 1 µg/mL
2 | B2 | 258% | did not result in adventitial lesions | 258.3 | 149.1 | 189.4 | 80.0 | 0.0 | 0.0 | activity comparable to wild-type PlySs2 lysin | –
3 | B3 | 220% | did not result in adventitial lesions | 219.9 | 248.4 | 270.4 | 82.1 | 0.0 | 0.0 | activity comparable to wild-type PlySs2 lysin | –
4 | B4 | 122% and 146% | did not result in adventitial lesions | 122.1 | 110.8 | 116.7 | 82.0 | 36.5 | 11.2 | activity comparable to wild-type PlySs2 lysin | –
